Kd and IC50 data for three substances are collected here from PMC7920261.

Assay [1] concerns the target SARS-CoV-2 spike receptor-binding domain (RBD) (SARS-CoV-2) (UniProt P0DTC2). The assay can be described thus: BLI.
Assay [2] shares this target. Nature of the assay: ELISA.
Assay [3] deals with SARS-CoV-1 spike receptor-binding domain (RBD) (SARS-CoV-1). The assay can be described thus: BLI.

For the substance CTC-445, recombinant (designed binder), in assay [1], the Kd worked out at 357 nM. Further, the IC50 in assay [2] worked out at 1700 nM.

Take “CTC-445.2, recombinant (designed binder)”: the equilibrium dissociation constant (Kd) worked out at 7100 nM in assay [3] and 21 nM in assay [1]. Besides, the IC50 in assay [2] turned out to be 10.4 nM.

Take CTC-445.2d (designed binder): the Kd in assay [3] was 587 nM; in assay [1], 3.5 nM. The same substance gave an IC50 in assay [2] of 0.7 nM.
